The values that follow come from publication PMC7394560, “Post-replicative pairing of sister ter regions in Escherichia coli involves multiple activities of MatP” (Nature Communications, 2020).

In general, stoichiometry N refers to a count of units in the complex or per binding partner.

Series [1] deals with T1, MatP (Escherichia coli, UniProt P0A8N0 1-150).
T1 sequence: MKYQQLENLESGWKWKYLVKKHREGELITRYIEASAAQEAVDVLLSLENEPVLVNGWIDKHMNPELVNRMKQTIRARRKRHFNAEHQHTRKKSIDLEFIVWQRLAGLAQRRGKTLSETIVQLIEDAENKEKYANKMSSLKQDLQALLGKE
In words: pull-down. Conditions: EMSA: 10 mM Tris pH 7.5, 125 mM NaCl, 2.5 mM MgCl2, 0.5 mM DTT, 5% glycerol, 1 uM DNA, 0.25 ug poly(dI-dC), 30 C; pull-down: 20 mM Tris pH 7.5, 1 mM MgCl2 …. In general terms: Mobility shift assays separate free from complexed probe on a gel.

Series [2] concerns the molecule itself. In words: native gel or EMSA; 41 bp matS DNA (1 µM) with 3 µM protein; 10 mM Tris pH 7.5, 125 mM NaCl, 2.5 mM MgCl2, 0.5 mM DTT, 5% glycerol, poly(dI-dC); 30 °C for 30 min; 5% native TGE-PAGE; oligomer size on DNA inferred from the mobility of the complexes against theoretical masses.
The next series has as its target T2, MatPΔ20-His (Escherichia coli, UniProt P0A8N0 1-130).
T2 sequence: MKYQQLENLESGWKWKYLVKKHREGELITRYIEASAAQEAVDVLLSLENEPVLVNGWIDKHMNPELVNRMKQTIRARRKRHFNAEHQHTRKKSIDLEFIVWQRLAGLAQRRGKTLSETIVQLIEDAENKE
In words: EMSA; equivalent efficiency to MatP; faster-migrating complex; EMSA: 10 mM Tris pH 7.5, 125 mM NaCl, 2.5 mM MgCl2, 0.5 mM DTT, 5% glycerol, 1 uM DNA, 0.25 ug poly(dI-dC), 30 C; pull-down: 20 mM Tris pH 7.5, 1 mM MgCl2, 150. Conditions: protein: recombinant; tags: His tag (MW 32 kDa with tag); chain copies: 2; label: 5' Cy3 on strand 1; blunt.

In another series the target is T3, MatPΔ20 untagged (Escherichia coli, UniProt P0A8N0 1-130).
T3 sequence: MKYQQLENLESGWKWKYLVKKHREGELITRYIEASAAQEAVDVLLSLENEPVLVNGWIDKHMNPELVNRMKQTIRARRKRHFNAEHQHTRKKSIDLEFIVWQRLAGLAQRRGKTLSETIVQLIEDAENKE
In words: EMSA; equivalent efficiency to MatP; EMSA: 10 mM Tris pH 7.5, 125 mM NaCl, 2.5 mM MgCl2, 0.5 mM DTT, 5% glycerol, 1 uM DNA, 0.25 ug poly(dI-dC), 30 C; pull-down: 20 mM Tris pH 7.5, 1 mM MgCl2, 150. Conditions: protein: recombinant; tags: none; chain copies: 2; label: 5' Cy3 on strand 1; blunt.

Series [3] addresses T1, MatP. Put plainly: EMSA; 3 uM MatP, 2.5 mM Mg2+, poly(dI-dC); proposed tetramer; titration 0.2-2 uM in Suppl. Fig. 7a,b; EMSA: 10 mM Tris pH 7.5, 125 mM NaCl, 2.5 mM MgCl2, 0.5 mM DTT, 5% glycerol, 1 uM DNA, 0.25 ug poly(dI-dC), 30 C; pull-down: 20 mM Tris pH 7.5, 1 mM MgCl2, 150. Conditions: protein: recombinant; MW 21 kDa); chain copies: 4; label: 5' Cy3 on strand 1; blunt.

As to DNAf(2matS), the binding signal (% DNAf recovered) with MatP [1] is 63.

B1: his-tagged MatPΔ20 (domain or fragment, E. coli, UniProt P0A8N0 1-130, looked up)
chain: MKYQQLENLESGWKWKYLVKKHREGELITRYIEASAAQEAVDVLLSLENEPVLVNGWIDKHMNPELVNRMKQTIRARRKRHFNAEHQHTRKKSIDLEFIVWQRLAGLAQRRGKTLSETIVQLIEDAENKE
notes: MatP of Escherichia coli lacking the last 20 C-terminal residues; theoretical mass of the tagged protein printed as 32 kDa; The printed 32 kDa ('twice bigger' than MatP) is far more than a His tag adds to about 130 residues; also called MatPΔ20-tag; source: E. coli BL21DE3, purified (HisTrap column)
Regarding B1, the “stoichiometry N” value in series [2] was found to be 2.

B2: untagged MatPΔ20 (domain or fragment, E. coli, UniProt P0A8N0 1-130, looked up)
chain: MKYQQLENLESGWKWKYLVKKHREGELITRYIEASAAQEAVDVLLSLENEPVLVNGWIDKHMNPELVNRMKQTIRARRKRHFNAEHQHTRKKSIDLEFIVWQRLAGLAQRRGKTLSETIVQLIEDAENKE
notes: MatP of Escherichia coli lacking the last 20 C-terminal residues; theoretical mass printed as 18 kDa; source: E. coli BL21DE3 (pET15b containing matPΔ20), purified (heparin column)
With B2, the “stoichiometry N” value in series [2] is 2.

B3: MatP (natural protein, E. coli, UniProt P0A8N0 1-150, looked up)
chain: MKYQQLENLESGWKWKYLVKKHREGELITRYIEASAAQEAVDVLLSLENEPVLVNGWIDKHMNPELVNRMKQTIRARRKRHFNAEHQHTRKKSIDLEFIVWQRLAGLAQRRGKTLSETIVQLIEDAENKEKYANKMSSLKQDLQALLGKE
notes: MatP, macrodomain Ter protein of Escherichia coli; theoretical mass printed as 21 kDa; also called MatP wt; source: E. coli BL21DE3 (pET15b containing matP), purified (heparin column)
For the molecule B3, the “stoichiometry N” value in series [2] stood at 4.

B4: matS41 (dsDNA)
DNA 1: AAGTACGGTAAAAGGTGACAGTGTCACTTTCATTGTTGGTA
DNA 2: TACCAACAATGAAAGTGACACTGTCACCTTTTACCGTACTT
For B4, the binding result with MatPΔ20-His, with MatPΔ20 untagged and in the series with MatP [3] was “binds” in each case.
